Measured values: the supplement of paper PMC9112550, “Optimization of the antimicrobial peptide Bac7 by deep mutational scanning” (BMC Biology, 2022)

Test system: Escherichia coli TOP10
Test: shrunken log2 fold change of peptide-encoding DNA abundance (4.5 h post-induction vs induction); higher = less antimicrobial activity (less host growth inhibition)
Conditions: time post-induction: 4.5 h; library: site-saturation at positions 5, 18, 19, 20
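Also: peptides expressed intracellularly from a pBAD plasmid library in pooled LB shake-flask culture, induced with 0.3% L-arabinose, DNA abundance read by NGS, three biological replicates, DESeq2 with apeglm shrinkage.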

## RRIRTRPPRLPRPRPRPFWLPRP
  shrunken log2 fold change: -0.0299

## RRIRTRPPRLPRPRPRPFWTPRP
  shrunken log2 fold change: -0.258

## RRIRTRPPRLPRPRPRPGDKPRP
  shrunken log2 fold change: 0.137

## RRIRTRPPRLPRPRPRPGEEPRP
  shrunken log2 fold change: -0.00249

## RRIRTRPPRLPRPRPRPGEFPRP
  shrunken log2 fold change: -0.0751

## RRIRTRPPRLPRPRPRPGFCPRP
  shrunken log2 fold change: 0.106

## RRIRTRPPRLPRPRPRPGFDPRP
  shrunken log2 fold change: -0.164

## RRIRTRPPRLPRPRPRPGFHPRP
  shrunken log2 fold change: -0.19

## RRIRTRPPRLPRPRPRPGGQPRP
  shrunken log2 fold change: 0.585

## RRIRTRPPRLPRPRPRPGIEPRP
  shrunken log2 fold change: -0.278

## RRIRTRPPRLPRPRPRPGKHPRP
  shrunken log2 fold change: -0.803

## RRIRTRPPRLPRPRPRPGKRPRP
  shrunken log2 fold change: 0.0687

## RRIRTRPPRLPRPRPRPGKTPRP
  shrunken log2 fold change: -0.0222

## RRIRTRPPRLPRPRPRPGLRPRP
  shrunken log2 fold change: 0.598

## RRIRTRPPRLPRPRPRPGMFPRP
  shrunken log2 fold change: -0.397

## RRIRTRPPRLPRPRPRPGNHPRP
  shrunken log2 fold change: -0.731

## RRIRTRPPRLPRPRPRPGNLPRP
  shrunken log2 fold change: 0.021

## RRIRTRPPRLPRPRPRPGPRPRP
  shrunken log2 fold change: 0.716

## RRIRTRPPRLPRPRPRPGVNPRP
  shrunken log2 fold change: -0.0412

## RRIRTRPPRLPRPRPRPGWCPRP
  shrunken log2 fold change: 1.42

## RRIRTRPPRLPRPRPRPGWQPRP
  shrunken log2 fold change: 0.174

## RRIRTRPPRLPRPRPRPGYSPRP
  shrunken log2 fold change: 1.78

## RRIRTRPPRLPRPRPRPHAAPRP
  shrunken log2 fold change: 0.0465

## RRIRTRPPRLPRPRPRPHCLPRP
  shrunken log2 fold change: -0.305

## RRIRTRPPRLPRPRPRPHDGPRP
  shrunken log2 fold change: -0.0845

## RRIRTRPPRLPRPRPRPHELPRP
  shrunken log2 fold change: -0.125

## RRIRTRPPRLPRPRPRPHENPRP
  shrunken log2 fold change: 0.00752

## RRIRTRPPRLPRPRPRPHFGPRP
  shrunken log2 fold change: -0.00836

## RRIRTRPPRLPRPRPRPHGQPRP
  shrunken log2 fold change: -0.0788

## RRIRTRPPRLPRPRPRPHGRPRP
  shrunken log2 fold change: 0.0169

## RRIRTRPPRLPRPRPRPHIKPRP
  shrunken log2 fold change: -0.616

## RRIRTRPPRLPRPRPRPHKFPRP
  shrunken log2 fold change: -0.18

## RRIRTRPPRLPRPRPRPHLKPRP
  shrunken log2 fold change: -0.207

## RRIRTRPPRLPRPRPRPHQGPRP
  shrunken log2 fold change: -0.0325

## RRIRTRPPRLPRPRPRPHQWPRP
  shrunken log2 fold change: -0.196

## RRIRTRPPRLPRPRPRPHRRPRP
  shrunken log2 fold change: 0.0892

## RRIRTRPPRLPRPRPRPHSIPRP
  shrunken log2 fold change: -0.0668

## RRIRTRPPRLPRPRPRPHSLPRP
  shrunken log2 fold change: 0.0291

## RRIRTRPPRLPRPRPRPHWAPRP
  shrunken log2 fold change: 0.0228

## RRIRTRPPRLPRPRPRPHYTPRP
  shrunken log2 fold change: -1.01

## RRIRTRPPRLPRPRPRPIAAPRP
  shrunken log2 fold change: 0.894

## RRIRTRPPRLPRPRPRPIAWPRP
  shrunken log2 fold change: -0.104

## RRIRTRPPRLPRPRPRPIDCPRP
  shrunken log2 fold change: 0.0429

## RRIRTRPPRLPRPRPRPIDEPRP
  shrunken log2 fold change: 0.0904

## RRIRTRPPRLPRPRPRPIENPRP
  shrunken log2 fold change: 0.0452

## RRIRTRPPRLPRPRPRPIFEPRP
  shrunken log2 fold change: -0.113

## RRIRTRPPRLPRPRPRPIFIPRP
  shrunken log2 fold change: -0.383

## RRIRTRPPRLPRPRPRPIGGPRP
  shrunken log2 fold change: -0.000462

## RRIRTRPPRLPRPRPRPIHEPRP
  shrunken log2 fold change: -0.259

## RRIRTRPPRLPRPRPRPIKFPRP
  shrunken log2 fold change: -0.0306

## RRIRTRPPRLPRPRPRPIMMPRP
  shrunken log2 fold change: -0.267

## RRIRTRPPRLPRPRPRPINNPRP
  shrunken log2 fold change: -0.793

## RRIRTRPPRLPRPRPRPIPHPRP
  shrunken log2 fold change: -0.307

## RRIRTRPPRLPRPRPRPIPKPRP
  shrunken log2 fold change: 0.103

## RRIRTRPPRLPRPRPRPIPTPRP
  shrunken log2 fold change: -0.606

## RRIRTRPPRLPRPRPRPIQLPRP
  shrunken log2 fold change: -0.122

## RRIRTRPPRLPRPRPRPIQMPRP
  shrunken log2 fold change: -0.286

## RRIRTRPPRLPRPRPRPIRCPRP
  shrunken log2 fold change: 0.0185

## RRIRTRPPRLPRPRPRPITCPRP
  shrunken log2 fold change: -0.223

## RRIRTRPPRLPRPRPRPITHPRP
  shrunken log2 fold change: -0.0526

## RRIRTRPPRLPRPRPRPIVFPRP
  shrunken log2 fold change: -0.218

## RRIRTRPPRLPRPRPRPIVHPRP
  shrunken log2 fold change: -0.0385

## RRIRTRPPRLPRPRPRPIYGPRP
  shrunken log2 fold change: -0.0121

## RRIRTRPPRLPRPRPRPKCFPRP
  shrunken log2 fold change: -0.384

## RRIRTRPPRLPRPRPRPKDFPRP
  shrunken log2 fold change: -0.00116

## RRIRTRPPRLPRPRPRPKDNPRP
  shrunken log2 fold change: -0.5

## RRIRTRPPRLPRPRPRPKDVPRP
  shrunken log2 fold change: -0.0302

## RRIRTRPPRLPRPRPRPKDWPRP
  shrunken log2 fold change: 0.358

## RRIRTRPPRLPRPRPRPKECPRP
  shrunken log2 fold change: -0.503

## RRIRTRPPRLPRPRPRPKFCPRP
  shrunken log2 fold change: 0.365

## RRIRTRPPRLPRPRPRPKGGPRP
  shrunken log2 fold change: 0.279

## RRIRTRPPRLPRPRPRPKGNPRP
  shrunken log2 fold change: -0.403

## RRIRTRPPRLPRPRPRPKGVPRP
  shrunken log2 fold change: 0.253

## RRIRTRPPRLPRPRPRPKHEPRP
  shrunken log2 fold change: -0.3

## RRIRTRPPRLPRPRPRPKHIPRP
  shrunken log2 fold change: -0.823

## RRIRTRPPRLPRPRPRPKICPRP
  shrunken log2 fold change: -0.292

## RRIRTRPPRLPRPRPRPKLLPRP
  shrunken log2 fold change: 0.272

## RRIRTRPPRLPRPRPRPKLTPRP
  shrunken log2 fold change: 0.0272

## RRIRTRPPRLPRPRPRPKLYPRP
  shrunken log2 fold change: -0.363

## RRIRTRPPRLPRPRPRPKPMPRP
  shrunken log2 fold change: 0.0287

## RRIRTRPPRLPRPRPRPKQLPRP
  shrunken log2 fold change: 0.23

## RRIRTRPPRLPRPRPRPKRNPRP
  shrunken log2 fold change: 0.366

## RRIRTRPPRLPRPRPRPKSDPRP
  shrunken log2 fold change: -0.146

## RRIRTRPPRLPRPRPRPKSNPRP
  shrunken log2 fold change: -0.448

## RRIRTRPPRLPRPRPRPKVCPRP
  shrunken log2 fold change: -0.00594

## RRIRTRPPRLPRPRPRPKWMPRP
  shrunken log2 fold change: 0.00414

## RRIRTRPPRLPRPRPRPKWNPRP
  shrunken log2 fold change: 0.0454

## RRIRTRPPRLPRPRPRPKYDPRP
  shrunken log2 fold change: -0.434

## RRIRTRPPRLPRPRPRPKYPPRP
  shrunken log2 fold change: -0.252

## RRIRTRPPRLPRPRPRPLAAPRP
  shrunken log2 fold change: 0.363

## RRIRTRPPRLPRPRPRPLAHPRP
  shrunken log2 fold change: -0.256

## RRIRTRPPRLPRPRPRPLAIPRP
  shrunken log2 fold change: 0.00788

## RRIRTRPPRLPRPRPRPLCNPRP
  shrunken log2 fold change: -0.484

## RRIRTRPPRLPRPRPRPLENPRP
  shrunken log2 fold change: 0.0394

## RRIRTRPPRLPRPRPRPLFEPRP
  shrunken log2 fold change: -0.166

## RRIRTRPPRLPRPRPRPLFHPRP
  shrunken log2 fold change: -0.193

## RRIRTRPPRLPRPRPRPLFNPRP
  shrunken log2 fold change: -0.692

## RRIRTRPPRLPRPRPRPLFSPRP
  shrunken log2 fold change: -0.717

## RRIRTRPPRLPRPRPRPLFVPRP
  shrunken log2 fold change: -0.382

## RRIRTRPPRLPRPRPRPLGIPRP
  shrunken log2 fold change: -0.638

## RRIRTRPPRLPRPRPRPLGWPRP
  shrunken log2 fold change: 0.811

## RRIRTRPPRLPRPRPRPLHDPRP
  shrunken log2 fold change: -0.21

## RRIRTRPPRLPRPRPRPLHQPRP
  shrunken log2 fold change: 0.0302

## RRIRTRPPRLPRPRPRPLHTPRP
  shrunken log2 fold change: -0.161

## RRIRTRPPRLPRPRPRPLITPRP
  shrunken log2 fold change: -0.489

## RRIRTRPPRLPRPRPRPLLCPRP
  shrunken log2 fold change: -0.413

## RRIRTRPPRLPRPRPRPLLIPRP
  shrunken log2 fold change: -0.0383

## RRIRTRPPRLPRPRPRPLLKPRP
  shrunken log2 fold change: -0.336

## RRIRTRPPRLPRPRPRPLMDPRP
  shrunken log2 fold change: -0.0405

## RRIRTRPPRLPRPRPRPLMYPRP
  shrunken log2 fold change: -0.736

## RRIRTRPPRLPRPRPRPLQAPRP
  shrunken log2 fold change: 0.00547

## RRIRTRPPRLPRPRPRPLQHPRP
  shrunken log2 fold change: -0.257

## RRIRTRPPRLPRPRPRPLQKPRP
  shrunken log2 fold change: -0.134

## RRIRTRPPRLPRPRPRPLTRPRP
  shrunken log2 fold change: 0.252

## RRIRTRPPRLPRPRPRPLVQPRP
  shrunken log2 fold change: 0.149

## RRIRTRPPRLPRPRPRPLWCPRP
  shrunken log2 fold change: -0.0967

## RRIRTRPPRLPRPRPRPLWWPRP
  shrunken log2 fold change: 0.546

## RRIRTRPPRLPRPRPRPLYMPRP
  shrunken log2 fold change: -0.859

## RRIRTRPPRLPRPRPRPLYYPRP
  shrunken log2 fold change: -0.771

## RRIRTRPPRLPRPRPRPMAEPRP
  shrunken log2 fold change: 0.117

## RRIRTRPPRLPRPRPRPMAWPRP
  shrunken log2 fold change: 0.114

## RRIRTRPPRLPRPRPRPMEHPRP
  shrunken log2 fold change: 0.118

## RRIRTRPPRLPRPRPRPMGMPRP
  shrunken log2 fold change: -0.12

## RRIRTRPPRLPRPRPRPMIDPRP
  shrunken log2 fold change: -0.246

## RRIRTRPPRLPRPRPRPMIEPRP
  shrunken log2 fold change: -0.244

## RRIRTRPPRLPRPRPRPMIVPRP
  shrunken log2 fold change: -0.158

## RRIRTRPPRLPRPRPRPMKFPRP
  shrunken log2 fold change: -0.116

## RRIRTRPPRLPRPRPRPMKHPRP
  shrunken log2 fold change: -0.00108

## RRIRTRPPRLPRPRPRPMLAPRP
  shrunken log2 fold change: 0.306

## RRIRTRPPRLPRPRPRPMLNPRP
  shrunken log2 fold change: -0.253

## RRIRTRPPRLPRPRPRPMNLPRP
  shrunken log2 fold change: -0.348

## RRIRTRPPRLPRPRPRPMPKPRP
  shrunken log2 fold change: 0.116

## RRIRTRPPRLPRPRPRPMPVPRP
  shrunken log2 fold change: 0.0572

## RRIRTRPPRLPRPRPRPMSRPRP
  shrunken log2 fold change: -0.361

## RRIRTRPPRLPRPRPRPMSVPRP
  shrunken log2 fold change: -0.00965

## RRIRTRPPRLPRPRPRPMTTPRP
  shrunken log2 fold change: 0.000642

## RRIRTRPPRLPRPRPRPMYIPRP
  shrunken log2 fold change: -1.2

## RRIRTRPPRLPRPRPRPMYLPRP
  shrunken log2 fold change: -0.518

## RRIRTRPPRLPRPRPRPNCRPRP
  shrunken log2 fold change: -0.00739

## RRIRTRPPRLPRPRPRPNCSPRP
  shrunken log2 fold change: -0.435

## RRIRTRPPRLPRPRPRPNELPRP
  shrunken log2 fold change: -0.0115

## RRIRTRPPRLPRPRPRPNFAPRP
  shrunken log2 fold change: 0.00158

## RRIRTRPPRLPRPRPRPNFIPRP
  shrunken log2 fold change: -0.457

## RRIRTRPPRLPRPRPRPNFMPRP
  shrunken log2 fold change: -0.401

## RRIRTRPPRLPRPRPRPNGAPRP
  shrunken log2 fold change: -0.0908

## RRIRTRPPRLPRPRPRPNGFPRP
  shrunken log2 fold change: -0.0646

## RRIRTRPPRLPRPRPRPNGTPRP
  shrunken log2 fold change: -0.402

## RRIRTRPPRLPRPRPRPNIAPRP
  shrunken log2 fold change: -0.239

## RRIRTRPPRLPRPRPRPNKRPRP
  shrunken log2 fold change: -0.265

## RRIRTRPPRLPRPRPRPNKYPRP
  shrunken log2 fold change: -0.76
